Columns and labels:
HeLa Kyoto [1] = assay: thermal stability score vs G1/S (z-score of summed log2 fold changes over temperatures); higher = more thermally stable than in G1/S
HeLa Kyoto [2] = assay: melting temperature (median over replicates), in situ; higher = more thermally stable
HeLa Kyoto [3] = assay: solubility change mitosis vs G1/S (difference of NP-40 vs SDS log2 ratios) (log2 ratio difference); higher = more soluble in mitosis
HeLa Kyoto [4] = assay: solubility in G1/S (NP-40 vs SDS abundance) (log2 ratio); higher = more soluble; conditions: cell cycle stage: G1/S
[5] = cell cycle stage: early G1 (4.5 h after nocodazole release)
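Throughout, for melting temperature (median over replicates), in situ: HeLa Kyoto cells synchronized by double thymidine or nocodazole block, proteins quantified by TMT10plex mass spectrometry, three independent biological replicates.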
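Throughout, for solubility change mitosis vs G1/S (difference of NP-40 vs SDS log2 ratios): synchronized HeLa Kyoto cells (double thymidine block for G1/S, nocodazole release for mitosis), protein amounts in NP-40 versus SDS lysates quantified by mass spectrometry, three biological replicates.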
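Throughout, for solubility in G1/S (NP-40 vs SDS abundance): HeLa Kyoto cells arrested at G1/S by double thymidine block, proteins quantified by TMT10plex mass spectrometry in mild NP-40 versus SDS extracts, three biological replicates.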
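Throughout, for thermal stability score vs G1/S (z-score of summed log2 fold changes over temperatures): synchronized HeLa Kyoto cells, proteins quantified by TMT10plex mass spectrometry, three biological replicates, mitosis taken 0.5 h after nocodazole release, G1/S directly after double thymidine block.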

Sequence of AGAP3 (chain, as listed by the source): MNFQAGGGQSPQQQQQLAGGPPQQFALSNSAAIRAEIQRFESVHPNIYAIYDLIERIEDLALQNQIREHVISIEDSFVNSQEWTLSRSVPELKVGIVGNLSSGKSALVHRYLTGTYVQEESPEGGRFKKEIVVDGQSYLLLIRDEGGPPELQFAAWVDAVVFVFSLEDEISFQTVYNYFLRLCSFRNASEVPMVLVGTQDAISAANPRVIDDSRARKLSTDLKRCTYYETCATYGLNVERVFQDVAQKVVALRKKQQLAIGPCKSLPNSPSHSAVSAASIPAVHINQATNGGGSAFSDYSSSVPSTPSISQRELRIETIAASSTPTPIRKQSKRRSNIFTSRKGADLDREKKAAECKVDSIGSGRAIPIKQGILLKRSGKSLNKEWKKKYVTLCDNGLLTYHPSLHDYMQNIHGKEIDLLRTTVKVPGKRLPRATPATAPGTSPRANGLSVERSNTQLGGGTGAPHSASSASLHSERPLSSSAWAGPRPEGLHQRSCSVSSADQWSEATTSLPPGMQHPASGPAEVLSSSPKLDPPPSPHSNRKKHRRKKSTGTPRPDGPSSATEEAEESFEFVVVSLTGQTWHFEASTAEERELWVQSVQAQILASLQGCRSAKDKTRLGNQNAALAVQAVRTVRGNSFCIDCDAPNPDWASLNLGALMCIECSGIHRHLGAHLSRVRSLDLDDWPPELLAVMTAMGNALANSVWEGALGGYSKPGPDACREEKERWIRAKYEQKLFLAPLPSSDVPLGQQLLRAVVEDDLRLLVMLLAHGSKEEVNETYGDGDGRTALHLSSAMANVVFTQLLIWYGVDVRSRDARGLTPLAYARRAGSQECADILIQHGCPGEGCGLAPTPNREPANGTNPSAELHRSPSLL

Row | Substance | thermal stability score (HeLa Kyoto [1]; [5]) | thermal stability score (HeLa Kyoto [1]; cell cycle stage: mitosis) | melting temperature (HeLa Kyoto [2]; cell cycle stage: G1/S) | melting temperature (HeLa Kyoto [2]; cell cycle stage: mitosis) | solubility change mitosis (log2) (HeLa Kyoto [3]) | solubility in G1/S (log2) (HeLa Kyoto [4])
1 | MDFEDDYTHSACRNTYQGFNGMDRDYGPGSYGGMDRDYGHGSYGGQRSMDSYLNQSYGMDNHSGGGGGSRFGPYESYDSRSSLGGRDLYRSGYGFNEPEQSRFGGSYGGRFESSYRNSLDSFGGRNQGGSSWEAPYSRSKLRPGFMEDRGRENYSSYSSFSSPHMKPAPVGSRGRGTPAYPESTFGSRNYDAFGGPSTGRGRGRGHMGDFGSIHRPGIVVDYQNKSTNVTVAAARGIKRKMMQPFNKPSGTFIKKPKLAKPMEKISLSKSPTKTDPKNEEEEKRRIEARREKQRRRREKNSEKYGDGYRMAFTCSFCKFRTFEEKDIELHLESSSHQETLDHIQKQTKFDKVVMEFLHECMVNKFKKTSIRKQQTNNQTEVVKIIEKDVMEGVTVDDHMMKVETVHCSACSVYIPALHSSVQQHLKSPDHIKGKQAYKEQIKRESVLTATSILNNPIVKARYERFVKGENPFEIQDHSQDQQIEGDEEDEEKIDEPIEEEEDEDEEEEAEEVGEVEEVEEVEEVREGGIEGEGNIQGVGEGGEVGVVGEVEGVGEVEEVEELEEETAKEEPADFPVEQPEEN [ZNF326] | 3.18 | 7.29 | 47 °C | 49.1 °C | 0.239 | -0.456
2 | MSWFVDLAGKAEDLLNRVDQGAATALSRKDNASNIYSKNTDYTELHQQNTDLIYQTGPKSTYISSAADNIRNQKATILAGTANVKVGSRTPVEASHPVENASVPRPSSHFVRRKKSEPDDELLFDFLNSSQKEPTGRVEIRKEKGKTPVFQSSQTSSVSSVNPSVTTIKTIEENSFGSQTHEAASNSDSSHEGQEESSKENVSSNAACPDHTPTPNDDGKSHELSNLRLENQLLRNEVQSLNQEMASLLQRSKETQEELNKARARVEKWNADHSKSDRMTRGLRAQVDDLTEAVAAKDSQLAVLKVRLQEADQLLSTRTEALEALQSEKSRIMQDQSEGNSLQNQALQTFQERLHEADATLKREQESYKQMQSEFAARLNKVEMERQNLAEAITLAERKYSDEKKRVDELQQQVKLYKLNLESSKQELIDYKQKATRILQSKEKLINSLKEGSGFEGLDSSTASSMELEELRHEKEMQREEIQKLMGQIHQLRSELQDMEAQQVNEAESAREQLQDLHDQIAGQKASKQELETELERLKQEFHYIEEDLYRTKNTLQSRIKDRDEEIQKLRNQLTNKTLSNSSQSELENRLHQLTETLIQKQTMLESLSTEKNSLVFQLERLEQQMNSASGSSSNGSSINMSGIDNGEGTRLRNVPVLFNDTETNLAGMYGKVRKAASSIDQFSIRLGIFLRRYPIARVFVIIYMALLHLWVMIVLLTYTPEMHHDQPYGK [GOLGA5] | 1.32 | 2.34 | 52.7 °C | 53 °C | -0.148 | 0.284
3 | MVFYFTSSSVNSSAYTIYMGKDKYENEDLIKHGWPEDIWFHVDKLSSAHVYLRLHKGENIEDIPKEVLMDCAHLVKANSIQGCKMNNVNVVYTPWSNLKKTADMDVGQIGFHRQKDVKIVTVEKKVNEILNRLEKTKVERFPDLAAEKECRDREERNEKKAQIQEMKKREKEEMKKKREMDELRSYSSLMKVENMSSNQDGNDSDEFM [CCDC25] | -0.0583 | -0.134 | 50.4 °C | 50.6 °C | -0.118 | 0.0307
4 | AGAP3 | 0.047 | 0.315 | 49.3 °C | 49.9 °C | -0.0465 | 0.259
5 | MQGPPRSLRAGLSLDDFIPGHLQSHIGSSSRGTRVPVIRNGGSNTLNFQFHDPAPRTVCNGGYTPRRDASQHPDPAWYQTWPGPGSKPSASTKIPASQHTQNWSATWTKDSKRRDKRWVKYEGIGPVDESGMPIAPRSSVDRPRDWYRRMFQQIHRKMPDLQLDWTFEEPPRDPRHLGAQQRPAHRPGPATSSSGRSWDHSEELPRSTFNYRPGAFSTVLQPSNQVLRRREKVDNVWTEESWNQFLQELETGQRPKKPLVDDPGEKPSQPIEVLLERELAELSAELDKDLRAIETRLPSPKSSPAPRRAPEQRPPAGPASAWSSSYPHAPYLGSARSLSPHKMADGGSPFLGRRDFVYPSSTRDPSASNGGGSPARREEKKRKAARLKFDFQAQSPKELTLQKGDIVYIHKEVDKNWLEGEHHGRLGIFPANYVEVLPADEIPKPIKPPTYQVLEYGEAVAQYTFKGDLEVELSFRKGEHICLIRKVNENWYEGRITGTGRQGIFPASYVQVSREPRLRLCDDGPQLPTSPRLTAAARSARHPSSPSALRSPADPIDLGGQTSPRRTGFSFPTQEPRPQTQNLGTPGPALSHSRGPSHPLDLGTSSPNTSQIHWTPYRAMYQYRPQNEDELELREGDRVDVMQQCDDGWFVGVSRRTQKFGTFPGNYVAPV [SORBS3] | -0.822 | 0.186 | 51.2 °C | 52 °C | -0.0255 | 0.169
6 | PKN2 | 0.95 | 1.36 | 48.3 °C | 49.3 °C | -0.163 | -0.0314
7 | MEAVKTFNSELYSLNDYKPPISKAKMTQITKAAIKAIKFYKHVVQSVEKFIQKCKPEYKVPGLYVIDSIVRQSRHQFGQEKDVFAPRFSNNIISTFQNLYRCPGDDKSKIVRVLNLWQKNNVFKSEIIQPLLDMAAGIPPPVVTPVLASTTTAMSNTPGTPVTPVTPANVVQGLPDPWVSQITNTDTLAAVAQILQSPQGQQLQQLIQTLQIQQQKPQPSILQALDAGLVVQLQALTAQLTAAAAAANTLTPLEQGVSFNKKLMDRFDFGEDSEHSEEPKKEIPASQLSHVSESVNNSIFHQIAEQLQQQNLEHLRQQLLEQQQPQKATPQDSQEGTFGSEHSASPSQGSSQQHFLEPEVNLDDSIDIQQQDMDIDEGQDGVEEEVFEQEAKKVAVRSRSRTHSRSRSRSPRKRRSRSRSGSRKRKHRKRSRSRSRERKRKSSRSYSSERRAREREKERQKKGLPPIRSKTLSVCSTTLWVGQVDKKATQQDLTNLFEEFGQIESINMIPPRGCAYVCMVHRQDAFRALQKLSSGSYKIGSKVIKIAWALNKGVKTEYKQFWDVDLGVTYIPWEKVKVDDLEGFAEGGMIDQETVNTEWETVKSSEPVKETVQTTQSPTPVEKETVVTTQAEVFPPPVAMLQIPVAPAVPTVSLVPPAFPVSMPVPPPGFSPIPPPPFLRASFNPSQPPPGFMPPPVPPPVVPPPTIPPVVPTSLVQPSLSMTPETVKDVGFGSLVIPGGSVASNLATSALPAGNVFNAPTKQAEPEEKVPHLIDHQISSGENTRSVIPNDISSNAAILGGQPPNVTSNSGILGVQRPNVSSNSEILGVRPSNVSSSSGIIAAQPPNILNNSGILGIQPPSVSNSSGLLGVLPPNIPNNSGLVGVQPPNVPNTPGLLGTQPPAGPQNLPPLSIPNQRMPTMPMLDIRPGLIPQAPGPRFPLIQPGIPPQRGIPPPSVLDSALHPPPRGPFPPGDIFSQPERPFLAPGRQSVDNVTNPEKRIPLGNDNIQQEGDRDYRFPPIETRESISRPPPVDVRDVVGRPIDPREGPGRPPLDGRDHFGRPPVDIRENLVRPGIDHLGRRDHFGFNPEKPWGHRGDFDEREHRVLPVYGGPKGLHEERGRFRSGNYRFDPRSGPWNRGFGQEVHRDFDDRRRPWERQRDRDDRDFDFCREMNGNRLGRDRIQNTWVPPPHARVFDYFEGATSQRKGDNVPQVNGENTERHAQPPPIPVQNDPELYEKLTSSNEINKEKSDTVADIESEPVVESTETEGT [SCAF8] | 0.536 | 0.448 | 48.6 °C | 49.3 °C | -0.0284 | -0.11
8 | MAEPDPSHPLETQAGKVQEAQDSDSDSEGGAAGGEADMDFLRNLFSQTLSLGSQKERLLDELTLEGVARYMQSERCRRVICLVGAGISTSAGIPDFRSPSTGLYDNLEKYHLPYPEAIFEISYFKKHPEPFFALAKELYPGQFKPTICHYFMRLLKDKGLLLRCYTQNIDTLERIAGLEQEDLVEAHGTFYTSHCVSASCRHEYPLSWMKEKIFSEVTPKCEDCQSLVKPDIVFFGESLPARFFSCMQSDFLKVDLLLVMGTSLQVQPFASLISKAPLSTPRLLINKEKAGQSDPFLGMIMGLGGGMDFDSKKAYRDVAWLGECDQGCLALAELLGWKKELEDLVRREHASIDAQSGAGVPNPSTSASPKKSPPPAKDEARTTEREKPQ [SIRT2] | 0.148 | -0.178 | 51.4 °C | 52.5 °C | -0.026 | 0.229
9 | MAAERQEALREFVAVTGAEEDRARFFLESAGWDLQIALASFYEDGGDEDIVTISQATPSSVSRGTAPSDNRVTSFRDLIHDQDEDEEEEEGQRFYAGGSERSGQQIVGPPRKKSPNELVDDLFKGAKEHGAVAVERVTKSPGETSKPRPFAGGGYRLGAAPEEESAYVAGEKRQHSSQDVHVVLKLWKSGFSLDNGELRSYQDPSNAQFLESIRRGEVPAELRRLAHGGQVNLDMEDHRDEDFVKPKGAFKAFTGEGQKLGSTAPQVLSTSSPAQQAENEAKASSSILIDESEPTTNIQIRLADGGRLVQKFNHSHRISDIRLFIVDARPAMAATSFILMTTFPNKELADESQTLKEANLLNAVIVQRLT [NSFL1C] | -1.97 | 1.13 | 51.7 °C | 52 °C | 0.0342 | 0.384
10 | MRKVVLITGASSGIGLALCKRLLAEDDELHLCLACRNMSKAEAVCAALLASHPTAEVTIVQVDVSNLQSVFRASKELKQRFQRLDCIYLNAGIMPNPQLNIKALFFGLFSRKVIHMFSTAEGLLTQGDKITADGLQEVFETNVFGHFILIRELEPLLCHSDNPSQLIWTSSRSARKSNFSLEDFQHSKGKEPYSSSKYATDLLSVALNRNFNQQGLYSNVACPGTALTNLTYGILPPFIWTLLMPAILLLRFFANAFTLTPYNGTEALVWLFHQKPESLNPLIKYLSATTGFGRNYIMTQKMDLDEDTAEKFYQKLLELEKHIRVTIQKTDNQARLSGSCL [HSD17B7] | -1.29 | -0.53 | 52.8 °C | 51 °C | -0.161 | -0.113
11 | MAAPQDVHVRICNQEIVKFDLEVKALIQDIRDCSGPLSALTELNTKVKEKFQQLRHRIQDLEQLAKEQDKESEKQLLLQEVENHKKQMLSNQASWRKANLTCKIAIDNLEKAELLQGGDLLRQRKTTKESLAQTSSTITESLMGISRMMAQQVQQSEEAMQSLVTSSRTILDANEEFKSMSGTIQLGRKLITKYNRRELTDKLLIFLALALFLATVLYIVKKRLFPFL [BNIP1] | 1.09 | 0.444 | 52.3 °C | 51.7 °C | -0.0998 | -0.186
12 | MVFLPLKWSLATMSFLLSSLLALLTVSTPSWCQSTEASPKRSDGTPFPWNKIRLPEYVIPVHYDLLIHANLTTLTFWGTTKVEITASQPTSTIILHSHHLQISRATLRKGAGERLSEEPLQVLEHPRQEQIALLAPEPLLVGLPYTVVIHYAGNLSETFHGFYKSTYRTKEGELRILASTQFEPTAARMAFPCFDEPAFKASFSIKIRREPRHLAISNMPLVKSVTVAEGLIEDHFDVTVKMSTYLVAFIISDFESVSKITKSGVKVSVYAVPDKINQADYALDAAVTLLEFYEDYFSIPYPLPKQDLAAIPDFQSGAMENWGLTTYRESALLFDAEKSSASSKLGITMTVAHELAHQWFGNLVTMEWWNDLWLNEGFAKFMEFVSVSVTHPELKVGDYFFGKCFDAMEVDALNSSHPVSTPVENPAQIREMFDDVSYDKGACILNMLREYLSADAFKSGIVQYLQKHSYKNTKNEDLWDSMASICPTDGVKGMDGFCSRSQHSSSSSHWHQEGVDVKTMMNTWTLQKGFPLITITVRGRNVHMKQEHYMKGSDGAPDTGYLWHVPLTFITSKSDMVHRFLLKTKTDVLILPEEVEWIKFNVGMNGYYIVHYEDDGWDSLTGLLKGTHTAVSSNDRASLINNAFQLVSIGKLSIEKALDLSLYLKHETEIMPVFQGLNELIPMYKLMEKRDMNEVETQFKAFLIRLLRDLIDKQTWTDEGSVSERMLRSQLLLLACVHNYQPCVQRAEGYFRKWKESNGNLSLPVDVTLAVFAVGAQSTEGWDFLYSKYQFSLSSTEKSQIEFALCRTQNKEKLQWLLDESFKGDKIKTQEFPQILTLIGRNPVGYPLAWQFLRKNWNKLVQKFELGSSSIAHMVMGTTNQFSTRTRLEEVKGFFSSLKENGSQLRCVQQTIETIEENIGWMDKNFDKIRVWLQSEKLERM [ERAP1] | 3.59 | 5.54 | 53.9 °C | 54.4 °C | -0.172 | 0.0916
